Reference: the DeepSol protein solubility set

Assay: soluble on expression in E. coli; label from the status in PepcDB or PDB records

| Sequence | soluble on expression in E. coli |
| --- | --- |
| MSLSSVRDKYNFNSEWLLYVGDTPEAKEVRFQDTDWKKVTLPRPFNEDEAFRLSIEQLTDTVMWYRKHFRLPADSKNKKVFVEFEGVRQGADFYINGEYIGLHENGAMAVGFDLTPYIKYGQENVMAVRIDNNWNYKERATGTKYQWSDRNFNANYGGIPKNVWLHVTDKLYQTLPLYSNLKTTGVYIYAEDIRVKSRKAVVHAESEIKNEYNRDKKVAYKVEVFDRDGKSIKSFEGTQTVVKPGETATLEASAEIDGLHFWSWGYGYLYTVKTSLWVDGRKVDEVATRTGFRKTRFGKGMIWLNDRVIQMKGFAQRTSNEWPGVGMSVPAWLSDYSNGLMVEDNANLVRWMHITPWKQDIESCDRVGLIQAMQAGDAEKDREGRQWEQRTELMRDAIIYNRNNPSILFYECGNESISREHMIEMKAIRDKYDPHGGRAIGSREMLDIREAEYGGEMLYINKSKHHPMWAMEYCRDEGLRKYWDEYSYPYHKNGEGNNSFRSAMTNKVQKKVDARAYNHNQDSFTIENVIRWFDYWRERPGTGDRVSSGGVKIIFSDTNTHYRGVENYRRSGVTDAMRIPKDPFYAHQVMWDGWVDIENPRIHIVGHWNYKEDVVKPVYVVSSAEKVELFLNGKSLGNGQRDYHFLYTFKDVAFVPGKLEAVGYDKNGKECCRAELQTAGKPEQIKLSVIQSPKGWKADGADMVLLQVEVMDKDGRRCPLANDLIHFDVEGPAEWRGGIAQGKDNYILSKDLPVECGINRALIRSLTTPGAVRITAKADGLQSAEISLSSAPVEVKNGLSNYIPGDELEGRLTRGETPLTPSYKDTKVDVNILSAVAGANQDETIKSFDDNELSEWKNDGRLNSAWITYSLERAARVDEICMKLTGWRLRSYPLEIYAGDELIWSGETEKSLGYIHLNVKPVLTNEITIRLKGASKEGDGFGQIVEVAAPAAGELDLFKAKNGDKTNHELRIVEIEFKENLWQEGHHHHHH | soluble |
| MSLTDLKEVARLAGVSRATAARAFASPEVVRAETRERVFVAARELGFRPNRLGRQLRLQTTNLIGVIVPNLLNPVFAEQFQAMERAARARGYNLLLATTDYSAERESAVVEELLRQRVDGLVLTVTDAEHNRVLESLAIEDTPFVLAYHQTDNEEYSAVSVDNRAGMALATRYLIDAGHRCIAMVAGPVMQSDRARLRYEGYRDAMNEGGLEARPVIEMPAHTNADFAALKPLLRGPTAPSALVCSNDLLAISLIAELRRNGWGVPERLSVIGFDGIALGTQMHPTLCSVVQPIAELAHIVIDQLLARIAGAVPVSHCLPCHIRPGESTQPYKEMLHAQPEGHHHHHH | soluble |
| MGSDKIHHHHHHMNPLETLWQLAANSVKADVLHLALEQQIFDRLEDVTAPEQLAESLGWQPEKTGFLLEILWSMQLLTRHHGGYRTASASSAVLCRSSPRFLGDAWRFRLTSLRQFGQGLADGMHQPLPAQLSELPRDAAWASAAEQQIAQEQRSITADLADQLLSRLPDFPQIRHVLDLGGGPGWVAITLALRHAQISGTIYDLPQTAAVAQRNINAAGLSARLSAQSGAFPSEKYDLIWSSSFLHFVEDIPAMLSTLYNTLTPDGSLVLAQAEIPEEADDAAPILPFYLPMQISGRHVTQEGQLTQWLVEAGFTSVETRRHQAFPMAPLNVLIARKHR | not soluble |
| KVGFKIGGGMEYGFNEIWSLQPSLFVSSKGAKKDELSVNAVYLELPVMAAARFKVADNTNIVLSAGPYFACGIAGNSKVDLGKGRLEVDTFGDDGLLKRGDVGLGIGVAAEFGKIIAGLDGQFGFVDVMDNVNGKNLNLSISVGYKF | not soluble |
| MSLDLNQIKAVVFDLEGTLLDRVKSREKFIEEQYERFHDYLIHVQLADFKKAFIELDDDEDNDKPDLYKEIIKRFHVDRLTWKDLFNDFEMHFYRYVFPYYDTLYTLEKLSQKGFQIGVIANGKSKIKQFRLHSLGLMHVINYLSTSETVGFRKPHPKIFEDMIDQLGVLPEQIMYVGDDALNDVAPARAMGMVSVWYKQEDAEIEPLEEEVDFTITTVEELLTILPIKNDNKGENYGSIYEGHHHHHH | soluble |
| MTVTYIGHSGFLLETEDAYFLFDYFEGTIPELKNNKSIIVFSSHRHHDHFNPEIFELIKIYPDIRYVLSYDIPLKRHLKKYENQGIDLAKNILITKKNIETMLKLPNGKDLKISTFRSTDEGVAFLLEYDNKVYYHAGDLNCWYWKEEPKSYRNNMIQLYIREIQKMDNLKIDVAFVPLDPRLEETAYEGLEIFMEHTNPQIVFPMHCWGKYDIISSFLNKHPEYKEKIRMINNEGQIFNV | not soluble |
| MLQVRMLLRIPTVLRSQELIDKAFSRASRIEEPYFPDKIERIRKEVQDRISTIESISRSFLDRLVKKFPSINNLHPFYSSLIDLMFDIDQYKISLSKIDRTSQMIEQISGEHIRRLKAAKTVEDANRIMRSYYGRFASLVHEIDQDLLFLGKCRDYMKKIPDIDVNLRTYIIAGMPNVGKSSLLAALTTKKPEIAPYPFTTKSVIIGIAEHGYERIQFIDTPGILDRDFDEMNQIEKNAVLALRHIKGTVIFLFDYSDQSLYDPEMQEHLYQQIREHINPDIIRVQTKMDISREKREKIAISVNSEGGLDPLKAIIFGRADDDVRRLEHHHHHH | not soluble |
| MSLKGENMRVAGLKTDKQGVIFDMDGLLVNSEELYWQANIQAAREYKLGISDDAYLDLVGASVKAMDAFYEKYFPSDEVRQAFVKRTDDLVWEWTDQGKLKLKAGVKEALEYFNDLGLTVGIASNNYKSVVDHNLWVTGCRNSFDFIVTHDEVAEKKLRSKPFPDLYLAAQERSGLGKDQLLIFEDSSMGVEAAENAGIDCVMIPDIKPASAEDRARAQLICPDFFDFLKKISEGHHHHHH | soluble |
| ERLFQVFISLGVGKSAIRQHLASLDPTNSRDIEALADELSGKRPLLYRGVAMLLAHHSFAKSLREDAAGMWLQEKRHQLHSGLR | not soluble |
| MGSDKIHHHHHHMKKNQKISVEQLEVGTFIRLPISWKDHPFLFSSFKIKDAAQIELIKGLGLKDVFFDPEKSDVEPVTSENASTQKPDEQALNALKEQMISQKSAKIDEQQKLKRDLKKTEQQFNRSVSMMRSMVSKISSRPLNAVSEAKDLISNMTTMLLNSDNLALHLMGDAKNDEHIYHHSLNVAMLCMLMAKELGWSREEVETIGIGGLFHDIGKLKVPSNILNKRVPLTTPEENFIKQHPLMSINFLKLADSFPDEAKPLIANHHEYLDGSGYPQGLKADKLDKLSQLIAVVNEYDNLCNGTNQAKGKPPSIALGLLYKNYKNKLNVEYISKLIKMLGIYPPGSIIELSSGQFAMVMSVNLQKLLCPNIVVYDQLVPKDLAPIISLQDEGLSIVRSLPAAALPEKIHKYLNPREQISLGIGQN | not soluble |
| MSEISQLTPQPLWQFFDKICSIPHPSKHEEALAQYIIEWATTEGLDVRRDPTGNVFIKKPATPGMEDRKGVVLQAHIDMVPQKNEDTEHDFTKDPIQPYIDGEWVTAKGTTLGADNGMGMASCLAVLASKELKHGPLEVLLTIDEEAGMTGAFGLEAGWLEGDILLNTDSEQEGEVYMGCAGGADGAIKLDIEREALPSGYITRQITLKGLKGGHSGCDIHTGRGNANKLLGRFLAGHAQELDLRLVEFRGGSLRNAIPREAFATIAVPAENEAKLAELFTFYTNLLKDELGKVETDIVSFNETASAEQVLTKITQSRFIATLNACPNGVIRMSDDIEGVVETSLNVGVITTDENSITILCLIRSLMDSGRSMVEGMLSSVAELAGAQVTFSGTYPGWKPDADSEIMHVFRDVYEGIYGNKPNIMVIHAGLECGLFKKPYPEMDMISFGPTIKFPHSPDEKVKIDTVALYWEQMVAILENIPKKLEHHHHHH | soluble |
| MTVITEPARQTPVIHNTDVLVVGSGPGGLAAALAAARAGVDVCLVERFGCFGGNITVVGVEGFAWYRHEATVEAGGIGREFEDRAREMGAAVPESQSLSYEIDSEGFKLVADRLVEEAGVHGMLHRQFVAPVMEGDRVAGIIVESKAGREAILARVVIDATGDADVAHRAGAPTLKTPAEHMQAASVMFHLAGVDKAAFMAEVRRDPQTYKDWSTGEWTVETDGKEDDMFSPFLKKPFAKAIEEGVIPPHLNTIAGTWGAMHDTGELTYMNLVHLAGVDGTDPDSLTQGEIEGRRQAMLAIEALRRFMPGCGGVRLRNFGMTIGIRDTRKIRAAYDMTETDVRQQGRFDDSIGIYPEFIDGYGVLIIPTTGRYMQIPYRAVLPGKVKGLLVAGRAIGGDRIAHAATRNMACCAVAGQGAGVAAALAVKTGCDVAQVDMAGVQAELLRQGVRIALEHHHHHH | not soluble |
| MSLKMRVYYEDTDAGGVVYHSNYLKFCERARSEIFFNKKVDIFDASKGHFLLAKANCNFLKPAKLGDMIEIKTKILEVKNASVEILQEIYKDEILLFKMELTLAFIKNEKPARMDMQLKKLFEELFEGGSHHHHHH | soluble |
| MNKKLMTLAVFLFSSAASAASTDATVNLVNANGTGQKIGNITITETEYGLLFTPHLSSLPAGIHGFHIHENGSCDAGMKDGKPVAALAAGGHLDPQHTNKHLGPYNPEGHLGDLPALYVNQAGNADYPVLAPRLKSISQVKGHAIMIHTGGDNHEDHPNPLGGGGARIACGVIK | not soluble |
| MSLSELVRKLSGTAPNPAFPRGAVDTQMHMYLPGYPALPGGPGLPPGALPGPEDYRRLMQWLGIDRVIITQGNAHQRDNGNTLACVAEMGEAAHAVVIIDATTTEKDMEKLTAAGTVGARIMDLPGGAVNLSELDAVDERAHAADWMVAVQFDGNGLLDHLPRLQKIRSRWVFDHHGKFFKGIRTDGPEMAALLKLIDRGNLWFKFAGVYESSRKSWPYADVAAFSRVIAAHAPERIVWGTNWPHNSVRETAAYPDDARLAELTLGWLPDEAARHRALVENPEALFKLSPVKEGHHHHHH | soluble |
| MGSDKIHHHHHHMELIEILLKKLNKNAVVTEIAKDKDPFKVLISTIISARTKDEVTEEVSKKLFKEIKDVDDLLNIDEEKLADLIYPAGFYKNKAKNLKKLAKILKENYNGKVPDSLEELLKLPGVGRKTANLVITLAFNKDGICVDTHVHRICNRWEIVDTETPEETEFELRKKLPKKYWKVINNLLVVFGREICSSKSKCDKCFKEIKEKCPYYEKIKHFENILKKFNFRKVSKNKIPNEKGTYILKIRLKEGKKIKFGKTERFFKKGYYFYIGSAFGNSMNLKNRIERHLKDDKKMHWHIDYLLKYGKIEEIYITNERVECEVANEFIKKFDFVENFGCSDCKCKSHLFYLKP | not soluble |
| MNHSIPTLRTERLTLRPLAMADFPAYRDFMASPRSTGVGGPYDLPSTWGVFCHDLANWHFFGHGALMIDLGETGECIGQIGINHGPLFPEKELGWLLYEGHEGRGYAAEAAVALRDWAFETLNLPTLVSYVSPQNRKSAAVAERIGGTLDPLAPRSDPEDLVYRYHQVKTA | soluble |
| RTVAQNASETTVSYDTDTAVLSEADVLRIALSENATVKVADMDVRKQEYARRAARADLFPKVDLNGVYSHTLKKQVLYIDMPGFSSSEGIEMGRTHNTQGGVNVSMPLVSAQLWKSIAMTGEQLDLALEKARSSRIDLVAEVKKAYLSVLLAEDSYGVFKRSYDNALANYKNISDKFDRGLVAEYDKIRANVQVRNIEPNLLQAQNSVALALWQLKVLMSMEVETPIRLSGSLSDYKEQVYTGYFAADTLISNNSSLRQLDIQRRLAVSADKLNKYSFLPTLNLGGQYTYSLNSNDIKFWGEGQR | not soluble |
| MGSDKIHHHHHHMFDMFEKAVVFGLYSITPVHAGSGAELSVIDLPIQRERHTGFPVIWGQSLKGVLRSRFRQLELDEKIEVESQKWKWKEKTKEVLKEKADEFIKKVEERKRDPLLTEIVFGPATDGASEHAGAVSVGDAKILLFPVRSAKGVFAFVTSPIVIQRLKEDFELVSEIENDIELKQILSRFKVELSNNETIAGNALILNGENKVILEDIVLKVKSDSNVIENLVEVLKTLFGDNFFGKPIESIKERIAIVSDDVFKSFTRFSTEIVARVRIDAEKGTVARGGLWYEEFLPSDTLMYSLIAVGSPKKENLPKEVDNTQKIVNVLKVTFNNAFLQIGGDETVGKGFVKVRAGVLTGGHKGN | not soluble |
